We go through 21 molecules from US20250026813A1 (published 2025).

In assay [1] the target is T1, RBD domain of the spike protein of SARS-CoV-2 virus (Acro Biosystems SPD-C52H3) (SARS-CoV-2, UniProt P0DTC2 319-537).
T1 construct: domain: RBD domain
The experiment in a line: Affinity (SPR) by Octet; antigen not named, taken from the epitope column.

In assay [2] the target is T2, S2 subunit of the SARS-CoV-2 spike protein (Sino Biological 40590-V08B), His tag (SARS-CoV-2, UniProt P0DTC2 686-1213).
T2 construct: domain: S2 subunit

B1: YANG-1112 (antibody, V domains shown)
VH: QITLKESGPTLVKPTQTLTLTCTFSGFSLSTGGVAVGWIRQPPGKALEWLAIIYWDDDKRYSPSLKSRLTITKDTSKNQVVLTMTNMDPVDTATYYCAHWGKDSFDIWGQGTMVTVSS
VL: SYELTQPPSVSVSPGQTARITCSGDALPRKYAYWYQQKSGQAPVLVIYEDNNRPSGIPERFSGSSSGTTATLTVSGAQVEDEADYYCYSTDTSGYVVFGGGTKLTVL
In assay [1], B1 displayed a Kd of less than 0.1 nM.

B2: IMPI-006 (antibody, V domains shown)
VH: QLQLQESGPGLVKPSETLSLTCTVSGGSISNSNYYWGWIRQPPGKGLEWIGSIYYSGRTYYNPSLKSRVTISVDTSKNQFSLKLSSVTAADTAVYYCARMGLLWFGEFYGMDVWGQGTTVTVSS
VL: DIQMTQSPSSLSASVGDRVTITCRASQGISSWLAWYQQKPEKAPKSLIYDASSLQRGVPSRFSGSGSGTDFTLTISSLQPEDFASYYCQQYNSYPLTFGGGTRVEIK
Take B2: the “HTRF deltaF” value in assay [2] is 40.7 deltaF.

B3: YANG-1110 (antibody, V domains shown)
VH: QVQLAESGGGVVQPGRSLRLSCVVSGFTFSNYGMHWVRQAPGKGLEWVVFISNDGSNEDFVDSVKGRFTISRDNSKNTLYLQMNSLRAEDTAVYYCAKGGYFYGSGNYYYYYGMDVWGQGTTVTVSS
VL: QPVLTQSSSASASLGSSVKLTCTLSSVHSNHIIAWHQQQPGKAPRYLMKLEGSGRYSKGSGVPDRFSGSSSEADRYLTISNLQSEDEADYYCETWDNNTYVFGSGTKVTVL
The molecule B3 returned a Kd in assay [1] of less than 0.1 nM.

B4: YANG-1101 (antibody, V domains shown)
VH: QLQLQESGPGLVKPSETLSLTCTVSGGSISSSSYYWGWIRQPPGKGLEWIGSIYYSGSIYYNPSLKSRVTISVDTSKNQFSLKLSSVTAADTAVYYCASWFGEFLKADAFDIWGQGTMVTVSS
VL: QSALTQPASVSGSPGQSITISCTGTSSDVGGYSYVSWYQQHPGKAPKLMIYDVSKRPSGVSNRFSGSKSGNTASLTISGLQAEDEADYYCCSYAGGSTFVVFGGGTKLTVL
In assay [1], B4 gave an equilibrium dissociation constant (Kd) of less than 0.1 nM.

B5: IMPI-032 (antibody, V domains shown)
VH: QVQLQESGPGLVKPSGTLSLTCAVSGGSISSNKWWSWVRQPPGKGLEWIGEIDHSGSTMYNPSLKSRVTISVDKSKNQFSLKLNSVTAADTAVYYCTGEGYNWNYWGQGTRVTVSS
VL: DVVMTQSPLSLPVTLGQTASISCRSSQSLLYTDGNTYLSWFQQRPGQSPRRLIYKVSKWESGVPDRFSGSGSGTDFTLKISRVEAEDVGIYYCMQGTHWPLTFGGGTKVEIK
In the case of B5, the “HTRF deltaF” value in assay [2] was -8 deltaF.

B6: YANG-1108 (antibody, V domains shown)
VH: QVQLVESGGGVVHPGRSLRLSCVVSGFTFSGYGMYWVRQAPGKGLEWVAVISKDGSDKYYADSVKGRFTISRDNSKNTLNLQMNSLRAEDTAVFYCAKERTFQGSGSYYNNYFYYGMDVWGQGTTVTVSS
VL: AIQLTQSPSSLSASVGDRVTITCRASQGISSALAWYQQKPGKAPNLLIYDASSLESGVPSRFSGSGFGTDFTLTINSLQPEDFASYYCQQFKSYPLTFGGGTKVEIK
B6 displayed a dissociation constant Kd in assay [1] of less than 0.1 nM.

B7: IMPI-027 (antibody, V domains shown)
VH: QVQLQESGPGLVKPSQTLSLTCTVSGGSISSYGYYWNWIRQHPGKGLEWIGYIYYSGSTYYNPSLKSRVTISVDTSKNQLSLRLNSVSAADTAVYYCARDFGGNSNYFDYWGQGTLVTVSS
VL: AIQLTQSPSSLSASVGDRVTITCRTSQGISSALAWYQQKPGKAPKLLIYDASSLESGVPSRFSGSGSGTDFTLTISSLQPEDFATYYCQQFNSYPLTFGGGTKVEIK
Regarding B7, in assay [2], the “HTRF deltaF” value worked out at 7.5 deltaF.

B8: IMPI-022 (antibody, V domains shown)
VH: EVQLVESGGGLVQPGRSLRLSCAASGFTFDDYAMHWVRQAPGKGLEWVSGITWNSGSIGYADSVKGRFTISRDNAKNSLYLHMNSLRVEDTALYYCAKDLQGDYYYYGVDVWGQGTTVTVSS
VL: AIQLTQSPSSLSASVGDRVTITCRASQGISSALAWYQQKPGKAPKLLLYDASSLVSGVPSRFSGSRSGTDFTLTISSLQPEDFATYYCQQFISYPLTFGGGTRVEIK
In the case of B8, in assay [2], the “HTRF deltaF” value was -9.7 deltaF.

B9: IMPI-033 (antibody, V domains shown)
VH: QVQLQESGPGLVKPSQTLSLTCTVSGGSISSYGYYWSWIRQHPGKGLEWIGYIYYSGSTYYNPSLKSRVTMSVDTSKNQLSLRLNSVSAADTAVYYCARDFGGNSNYFDYWGQGTLVTVSS
VL: AIQLTQSPSSLSASVGDRVTITCRASQGISSALAWYQQKPGKAPNLLIYDASSLESGVPSRFSGSGSGTDFTLTISSLQPEDFATYYCQQFNSSPLTFGGGTKVEIK
As to B9, in assay [2], the “HTRF deltaF” value is -3.6 deltaF.

B10: YANG-1106 (antibody, V domains shown)
VH: EVQLVESGGGLIQPGGSLRLSCAASEFIVSRNYMSWVRQAPGKGLEWVSVIYSGGSTFYADSVRGRFTISRDNSKNTLYLQMNSLRAEDTAVYYCARDYGDQYFDYWGQGTLVTVSS
VL: EMVMTQSPATLSVSPGEKATLSCRASQTVSTNLAWYQQKPGQSPRLLIYGASTRATGIPARFSGSGSGTEFTLTISSLQSEDFAIYYCQQYVDWPRTFGQGTTVEIK
In turn, B10 had a dissociation constant Kd in assay [1] of less than 0.1 nM.

B11: IMPI-055 (antibody, V domains shown)
VH: QVQLVQSGAEVKKPGASVKVSCKASGYTFTSYDINWVRQATGQGLEWMGWMNPNSGNTGYAQKFQGRVTMTRDTSINTAYMELSSLRSEDTAVYFCARGGRYCSDVTCYSGEPFDYWGQGTLVTVSS
VL: EIMLTQSPDFQSVTPKEKVTITCRASQSIGSSLHWYQQKPDQSPKLLIKFASQSISGVPSRFSGSGSGTDFTLTINSLEAEDAAAYYCHQSSSLPHTFGPGTKVEIK
With B11, the “HTRF deltaF” value in assay [2] is -10.3 deltaF.

B12: YANG-1102 (antibody, V domains shown)
VH: QVQLQESGPGLVKPSGTLSLTCAVSGGSISTTNWWSWVRQSPGRGLEWIGEIFHIGYTNYNPSLKSRVTISVDKSKNQFSLKLNSVTVADTAVYYCARRVVMDTAMAHFDCWGQGTLVTVSS
VL: QSVLTQPPSVSGAPGQRVTISCTGSSSNIGAGYDVHWYQHLPGTAPKLLIYININRPSGVPDRFSGSKSGTSASLVIAGLQAEDGADYYCQSYDSSLSGWVFGGGTRLTVL
B12 showed a Kd in assay [1] of less than 0.1 nM.

B13: IMPI-059 (antibody, V domains shown)
VH: EVQLVESGGGLIQPGGSLRLSCAASGFTVSSIYMSWVRQAPGKGLEWVSIIYSRGSTDYADSVKGRFTISRDISKNTLYLQMNSLRAEDTAVYYCARDGTMVRGVHAFDIWGQGTMVTVSS
VL: DIQMTQSPPSLSASIGDRVTITCQASQDISNYLNWYQQKPGKAPKLLIYDASNLETGVPSRFSGSGSGTDFTLTISNLQPEDIVTYYCQQYDNLPSSFGQGTKLEIK
With B13, in assay [2], the “HTRF deltaF” value is -2.7 deltaF.

B14: YANG-1119 (antibody, V domains shown)
VH: EVQLVESGGGLVKPGGSLRLSCAASGFTFSSYSMNWVRQAPGKGLEWVSSISTGSSYIFYADSVKGRFTISRDNAKNSLYLQMNSLRAEDTAVYYCAKTGDLPFFDYWGQGTLVTVSS
VL: QSALTQPASVSGSPGQSITISCTGTSSDVGRYNYVSWYQQHPGKAPKLMIYEVSNRPSGVSNRFSGSKSGNTASLTISGLQAEDEADYYCSSYTSSSTMVFGGGTKLTVL
With B14, in assay [1], the Kd is less than 0.1 nM.

B15: YANG-1103 (antibody, V domains shown)
VH: EVQMVESGGGLIQPGGSLRLSCAASGLTVSSNYMSWVRQAPGKGLEWVSVIYSGGSTFYADSVKDRFTISRDNSKNTLYLQMNSLRAEDTAVYYCARENWNYVFDCWGQGTLVTVSS
VL: DIQLTQSPSFLSASVGDRVTITCWASQGISSYLAWYQQKPGKAPKLLIYAASTLQSGVPSRFSGSGSGTEFTLTISSLQPEDFATYYCQQLNSHPIIFGQGTRLEIK
For B15, the Kd in assay [1] was less than 0.1 nM.

B16: IMPI-037 (antibody, V domains shown)
VH: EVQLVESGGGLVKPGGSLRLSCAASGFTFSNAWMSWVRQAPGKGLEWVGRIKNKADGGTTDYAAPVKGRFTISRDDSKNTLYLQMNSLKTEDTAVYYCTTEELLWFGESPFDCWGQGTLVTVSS
VL: DIQLTQSPSFLSASVGDRVTITCWASQGINSYLAWYQQKPGKAPKLLIYAASTLQSGVPSRFSGSGSGTEFTLTISSLQPEDFTTYYCQQFNDYPRTFGPGTKVEIK
For B16, the “HTRF deltaF” value in assay [2] was -2 deltaF.

B17: YANG-1109 (antibody, V domains shown)
VH: EVQLVESGGGLIQPGGSLRLSCGVSGLTVSRNYMNWVRQAPGKGLEWVSVIYSGGSTFYADSVKGRFTISRDNSKNTLYLQMISLRAEDSGVYYCAREGFGMDVWGQGTTVTVSS
VL: DIQLTQSPSFLSASVGDRVTITCWASQGISNYLAWYQQKPGKAPKLLIYSASTLQSGVPSRFSGSGSGTEFTLTISNLQPADIATYYCQLLNSHPCSFGQGTKLEIK
On to B17, for which, in assay [1], the dissociation constant Kd was less than 0.1 nM.

B18: IMPI-017 (antibody, V domains shown)
VH: EVQLVESGGGLIQPGGSLRLSCAAAGLTVSSNYMNWVRQVPGKGLEWVSVIYSGGSTYYADSVKGRFTISRDNSKNTLYLQMNSLRAEDTAVYYCARDLGTLGMDVWGQGTTVTVSS
VL: DIQLTQSPSFLSASVGDRVTITCWASQGISTYLAWYQQKPGKAPKLLIYAASTLQSGVPSRFSGSGSGTEFTLTISSLQPEDFATYYCQQLNSYLPTFGQGTKVEIK
For the molecule B18, the “HTRF deltaF” value in assay [2] worked out at 13 deltaF.

B19: YANG-1105 (antibody, V domains shown)
VH: EVQVVESGGGLIQPGGSLRLSCAASGITVSRNYMNWVRQAPGKGLEWVSVIYSGGSTFYADSVKGRFTISRDNSKNTLYLQMNSLRADDTGVYYCAREGYGMDVWGQGTTVTVSS
VL: DIQLTQSPSFLSASVGDRVTITCWASQGISSYLAWYQQKPGKAPKLLIYSASTLQSGVPSRFSGSGSGTEFTLTINSLQPEDFATYYCQQLNSHPCSFGQGTKLEIK
As to B19, in assay [1], the Kd was less than 0.1 nM.

B20: YANG-1107 (antibody, V domains shown)
VH: EVQMVESGGGLIQSGGSLRLSCAASGLSVSSNYMSWVRQAPGKGLEWVAVIYSGGSIFYADSVKDRFTISRDNSKNTLYLQMNSLRAEDTAVYYCARENWNYVFDCWGQGTLVTVSS
VL: DIQLTQSPSFLSASVGDRVTITCWASQGISTYLAWYQQKPGKAPKLLIYAASTLQSGVPSRFSGSGSGTEFTLTISSLQPEDFATYYCQQLSSHPIIFGQGTRLEIK
As for B20, the equilibrium dissociation constant (Kd) in assay [1] was less than 0.1 nM.

B21: YANG-1111 (antibody, V domains shown)
VH: EVQLVESGGGLIQPGGSLRLSCAASGFTFSSYSINWVRQAPGKGLEWVSFISGSSTTIYYADSVKGRFTISRDSAKNSLYLQMNSLRDEDTAVYYCARGLRSSIAPRPDYFDSWGQGILVTVSS
VL: SYVLTQPPSVSVAPGKTARITCGGNNIGSKGVHWYQQKPGQAPVLVIYYDSDRPSGIPERFSGSNSGNTATLTISRVEAGDEADYSCQVWDSSSDHPVFGGGTKLTVQ
B21 showed a dissociation constant (Kd) in assay [1] of less than 0.1 nM.
